Assay results reported in article PMC12187079 (Nature, 2024).

How the values were obtained:
Assay in all cases: immunostaining of cells or tissue
Settings in all cases: one partner purified
[1] = target: RaTG13 NTD-mFc (Bat coronavirus RaTG13 (MN996532))
[2] = target: SARS-CoV-2 NTD-mFc (SARS-CoV-2 Wuhan-Hu-1 (NC_045512))
[3] = target: BANAL-20-52 NTD-mFc (Bat coronavirus BANAL-20-52/Laos/2020 …)

Measured: binding result

B1: S2L20-CVR (receptor)
VH: EVQLVESGGGVVQPGGSLRLSCAASGFTFNSYGMHWVRQAPGKGLEWVAFIRYDGGNKYYADSVKGRFTISRDNSKNTLYLQMKSLRAEDTAVYYCANLKDSRYSGSYYDYWGQGTLVTVS
VL: not shown
notes: also called HEK293T-S2L20-CVR; source: HEK293T, stably expressing (lentiviral transduction), on cells
binds: [1] | [2] | [3]
